The results in this text go back to patent publication US20210269772A1, “COMPOSITIONS AND METHODS RELATED TO APTAMER-BASED REVERSIBLE CELL SELECTION” (UNIVERSITY OF WASHINGTON, published 2021).

In series [1] the target is CD8 alpha (CD8a) on CD8+ T cells / PBMC (Homo sapiens, UniProt P01732 P01732:22-235). Kind of series: flow; apparent Kd on CD8+ T cells, 4 C, 5.5 mM Mg; binding reduced 73-77% by CD8a siRNA. The settings on record: label: 5'-FAM (cells); biotin (BLI).
Series [2] addresses CD8 alpha (CD8a) extracellular domain (Homo sapiens, UniProt P01732 P01732:22-182). Kind of series: BLI; 25 C, 5.5 mM Mg, tRNA, BSA, 0.01% tween-20. The settings on record: tags: Sino Biological; label: 5'-FAM (cells); biotin (BLI). As to the method: The observed differences in binding affinity values determined by the two methods is expected. Mass transport limitations not present with BLI but present when staining cells in static wells will favor re-binding and thereby limit dissociation, improving the apparent KD of the faster dissociating A3 relative to the other aptamers.
BLI studies were conducted on a ForteBio Octet Red96 instrument at 25° C. with sample agitation at 1000 rpm. The sample buffer used for all steps was comprised of binding buffer with 0.01% tween-20. Streptavidin-coated biosensors were loaded with 50nM biotinylated aptamer until all sensors (except for the reference) reached a capture threshold of 0.5 nm. After a 100 second rinse and baseline steps in buffer alone, sensors were exposed to a 1:3 dilution series of recombinant human CD8a protein (Sino Biological) ranging from 150nM to 5.56nM. Association with protein was monitored for 1200 sec, and dissociation was carried out for 600 second in buffer alone. Data analysis was carried out using Octet Data Analysis 9.0 software (ForteBio). Kinetic constants were calculated by conducting a global fit of the several processed association and dissociation curves from the protein dilution series to a 1:1 binding model. The quality of the fit was evaluated by the R2 and χ2 values.
For orientation: In BLI a coated tip is dipped into the sample, and binding shifts an interference pattern.

Chain of CD8 alpha (CD8a) on CD8+ T cells / PBMC (P01732 22-235, one chain of several): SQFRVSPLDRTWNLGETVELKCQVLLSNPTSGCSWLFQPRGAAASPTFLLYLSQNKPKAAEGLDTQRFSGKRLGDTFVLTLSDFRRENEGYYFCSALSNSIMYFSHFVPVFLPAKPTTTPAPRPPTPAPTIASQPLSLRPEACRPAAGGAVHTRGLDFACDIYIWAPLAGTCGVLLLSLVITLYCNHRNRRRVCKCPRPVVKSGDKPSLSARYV
Chain of CD8 alpha (CD8a) extracellular domain (P01732 22-182, one chain of several): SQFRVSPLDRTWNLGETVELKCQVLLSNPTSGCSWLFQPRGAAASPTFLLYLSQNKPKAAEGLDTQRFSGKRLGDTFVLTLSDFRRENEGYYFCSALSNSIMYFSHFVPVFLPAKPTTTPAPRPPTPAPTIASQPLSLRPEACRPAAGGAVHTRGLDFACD

B1: A8 (ssDNA)
DNA: ATCCAGAGTGACGCAGCAGCTCGATCGTATAGCCGTGACGCAGCTTGAAATGGGATCGCGTCCACAGTTTTGGACACGGTGGCTTAGT
Turning to B1, in series [1], the Kd came out at 2.4 nM.

B2: A3 (ssDNA)
DNA: ATCCAGAGTGACGCAGCAACAGAGGTGTAGAAGTACACGTGAACAAGCTTGAAATTGTCTCTGACAGAGGTGGACACGGTGGCTTAGT
Regarding B2, the Kd in series [1] worked out at 1.9 nM.

B3: A1 (ssDNA)
DNA: ATCCAGAGTGACGCAGCACGCAGCACCCGTGGTAGTGTATCAGGGAGACACTACGTGATGCAGCTTGAAATGGACACGGTGGCTTAGT
For B3, the Kd is 20.1 nM in series [2] and 18.3 nM in series [1].
